Measured values from US20240141059A1 (Bristol-Myers Squibb, published 2024).
Several values for one entry are separate records, joined by “and”; a condition that tells them apart may be missing. Equal values may be shown once. Read-outs that look alike come from different tables or passages of the source.

T1: hCD73-his (human, UniProt P21589 26-546)
T1 construct: range 26-546; also called full length extracellular domain of human-CD73
T1 sequence (looked up): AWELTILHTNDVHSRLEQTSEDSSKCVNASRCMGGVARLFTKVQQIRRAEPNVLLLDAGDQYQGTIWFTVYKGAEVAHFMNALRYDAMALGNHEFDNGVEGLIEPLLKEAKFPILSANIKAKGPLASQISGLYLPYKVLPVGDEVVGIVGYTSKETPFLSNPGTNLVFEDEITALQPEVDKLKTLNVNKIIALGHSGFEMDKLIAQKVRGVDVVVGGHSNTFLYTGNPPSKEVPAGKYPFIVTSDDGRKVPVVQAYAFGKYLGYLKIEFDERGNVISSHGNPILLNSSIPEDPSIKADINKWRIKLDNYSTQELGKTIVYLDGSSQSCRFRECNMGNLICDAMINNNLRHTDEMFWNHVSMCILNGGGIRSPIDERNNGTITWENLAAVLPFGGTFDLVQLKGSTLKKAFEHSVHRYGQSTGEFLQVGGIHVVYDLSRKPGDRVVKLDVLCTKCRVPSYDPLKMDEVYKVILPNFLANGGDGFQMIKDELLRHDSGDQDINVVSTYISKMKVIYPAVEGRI

T2: human CD73 on cells (human, UniProt P21589 27-549)
T2 sequence (looked up): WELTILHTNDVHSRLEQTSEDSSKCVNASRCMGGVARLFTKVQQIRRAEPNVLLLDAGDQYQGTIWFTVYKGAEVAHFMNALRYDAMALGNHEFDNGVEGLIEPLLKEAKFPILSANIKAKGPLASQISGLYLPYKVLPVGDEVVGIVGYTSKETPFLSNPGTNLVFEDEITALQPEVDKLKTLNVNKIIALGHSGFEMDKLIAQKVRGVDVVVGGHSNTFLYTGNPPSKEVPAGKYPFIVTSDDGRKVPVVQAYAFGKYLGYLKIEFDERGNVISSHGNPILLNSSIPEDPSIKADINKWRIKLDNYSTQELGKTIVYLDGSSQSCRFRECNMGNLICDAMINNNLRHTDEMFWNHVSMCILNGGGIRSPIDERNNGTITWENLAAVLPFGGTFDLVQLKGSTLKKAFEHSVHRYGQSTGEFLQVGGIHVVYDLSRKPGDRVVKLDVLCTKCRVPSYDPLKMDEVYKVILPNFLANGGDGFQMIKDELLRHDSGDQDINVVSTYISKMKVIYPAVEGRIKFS

T3: N-hCD73-his (human, UniProt P21589 26-336, limits assumed)
T3 construct: monomeric in solution by SEC-MALS; also called N-terminal domain of hCD73
T3 sequence (looked up): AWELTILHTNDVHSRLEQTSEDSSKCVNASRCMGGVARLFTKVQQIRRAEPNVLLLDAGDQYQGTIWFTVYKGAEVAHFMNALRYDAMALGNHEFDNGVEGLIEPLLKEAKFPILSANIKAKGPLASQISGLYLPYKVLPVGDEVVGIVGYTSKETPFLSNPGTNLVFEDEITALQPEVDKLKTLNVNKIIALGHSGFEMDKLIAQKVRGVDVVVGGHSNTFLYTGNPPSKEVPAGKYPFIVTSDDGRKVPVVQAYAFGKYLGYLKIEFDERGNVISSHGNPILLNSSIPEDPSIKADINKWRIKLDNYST


Key:
hCD73-his [1] = target: T1, hCD73-his; experiment: SEC of equimolar mAb + hCD73-his
Experimental: (§1) The oligomeric state of CD73/antibody complexes were examined by size-exclusion chromatography coupled to an in-line multi-angle light scattering detector (SEC-MALS). Isocratic separations were performed on a Shodex PROTEIN KW-803 column connected to an Prominence Shimadzu UFLC in buffer containing 200 mM K₂HPO₄, 150 mM NaCl, pH 6.8, containing 0.02% Na azide (0.1 μm filtered) running at 0.5 mL/min. Samples were injected onto the column using a SIL-20AC Prominence Shimadzu® autosampler, and data were obtained from three online detectors connected in series: a Prominence SPD-20AD diode array UV/vis spectrophotometer followed by a Wyatt miniDAWN™ TREOS Multi-Angle Light Scattering Detector then a Wyatt Optilab T-rEX Refractive Index Detector® instrument. Data were collected and analyzed using Astra® (Wyatt) and Labsolutions® (Shimadzu) software.
CD73.4 antibodies having the heavy chain constant regions set forth in Table 14 were also tested for formation of high molecular weight complexes by SEC-MALS and DLS experiments, as described in Example 3.

human CD73 on cells [2] = target: T2, human CD73 on cells; experiment: cell-based or functional assay
hCD73-his [3] = target: T1, hCD73-his; experiment: DLS, target:mAb 1:1, 2.5 uM + 2.5 uM; unit from the text
Experimental: (§2) The structure and oligomeric state of CD73/antibody complexes in solution were examined by SEC-MALS and DLS.
Dynamic light scattering (DLS) studies were performed on a Wyatt DynaPro® plate reader in 384 well plates at 25° C. Experimental parameters were 20 acquisitions of 5 s each per measurement, and measurements were recorded in quadruplicate, with the average and standard deviation reported. Intensity autocorrelation functions were fitted using the “Regularization” algorithm in the Dynamics® software (Wyatt Technologies®).

hCD73-his [4] = target: T1, hCD73-his; experiment: SEC-MALS, target:mAb 1:1, 2.5 uM + 2.5 uM
Experimental: as §2, §1

human CD73 on cells [5] = target: T2, human CD73 on cells; experiment: cell-based or functional assay; remark: listed apart in the source
human CD73 on cells [6] = target: T2, human CD73 on cells; experiment: cell-based or functional assay; remark: listed apart in the source
N-hCD73-his = target: T3, N-hCD73-his; experiment: SPR, mAb captured on protein A
Experimental: The affinity of the antibodies for human CD73 was measured to determine whether the change of the constant region affects them. The affinities were determined by Surface Plasmon Resonance (SPR) as follows. […] For these experiments, protein A (Pierce) was immobilized to a density of 3000-4000 RU on flow cells 1˜4 of a CMS sensor chip (GE Healthcare) using standard ethyl(dimethylaminopropyl) carbodiimide (EDC)/N-hydroxysuccinimide (NHS) chemistry, with ethanolamine blocking, in a running buffer of 0.01 M HEPES pH 7.4, 0.15 M NaCl, 3 mM EDTA, 0.005% v/v tween 20. […] The running buffer for the kinetic experiments was 10 mM sodium phosphate, 130 mM sodium chloride, 0.05% tween 20, pH 7.1. The surfaces were regenerated after each cycle using two 30 s pulses of 10 mM glycine pH 1.5 at a flow rate of 30 μl/min. Sensogram data was double-referenced and then fitted to a 1:1 Langmuir model using Biacore® T100 evaluation software v2.0.4, to determine the association rate constant (ka), the dissociation rate constant (kd), and the equilibrium dissociation constant (KD).

Row | Binder | UV % Peak1 (<12.9 min) (hCD73-his [1]) [%] | UV % Peak4 (16.7-19.3 min) (hCD73-his [1]) [%] | UV % Peak5 (>19.3 min) (hCD73-his [1]) [%] | internalization T1/2, Calu6 (human CD73 on cells [2]) [min] | internalization T1/2, NCI-H292 (human CD73 on cells [2]) [min] | internalization Ymax, Calu6 (human CD73 on cells [2]) [%] | internalization Ymax, NCI-H292 (human CD73 on cells [2]) [%] | Rh (hCD73-his [3]) [nm] | MW Peak 1 (hCD73-his [4]) [kDa] | MW Peak 2 (hCD73-his [4]) [kDa] | MW Peak 3 (hCD73-his [4]) [kDa] | internalization T1/2, Calu6 (human CD73 on cells [5]) [min] | internalization T1/2, NCI-H292 (human CD73 on cells [5]) [min] | internalization Ymax, Calu6 (human CD73 on cells [5]) [%] | internalization Ymax, NCI-H292 (human CD73 on cells [5]) [%] | internalization EC50, Calu6 cells, 2 h (human CD73 on cells [6]) [nM] | internalization Ymax (% of 100 nM 11F11), Calu6 cells (human CD73 on cells [6]) [%] | Kd (N-hCD73-his) | koff (N-hCD73-his) | kon (N-hCD73-his)
1 | CD73.4-IgG2.3-plusTHT (antibody, also called mAb-CD73.4-IgG2.3-plusTHT; CD73.4-Vh-hHC-IgG2.3-plusTHT) heavy: QVQLVESGGGVVQPGRSLRLSCAASGFTFSNYGMHWVRQAPGKGLEWVAVILYDGSNKYYPDSVKGRFTISRDNSKNTLYLQMNSLRAEDTAVYYCARGGSSWYPDSFDIWGQGTMVTVSSASTKGPSVFPLAPCSRSTSESTAALGCLVKDYFPEPVTVSWNSGALTSGVHTFPAVLQSSGLYSLSSVVTVPSSNFGTQTYTCNVDHKPSNTKVDKTVERKSCVETHTCPPCPAPPVAGPSVFLFPPKPKDTLMISRTPEVTCVVVDVSHEDPEVQFNWYVDGVEVHNAKTKPREEQFNSTFRVVSVLTVVHQDWLNGKEYKCKVSNKGLPAPIEKTISKTKGQPREPQVYTLPPSREEMTKNQVSLTCLVKGFYPSDIAVEWESNGQPENNYKTTPPMLDSDGSFFLYSKLTVDKSRWQQGNVFSCSVMHEALHNHYTQKSLSLSPGK light: not shown | 30.6 | 33.7 | 3.2 | 21.3 | 17.6 | 81.2 | 91.4 | – | – | – | – | – | – | – | – | – | – | – | – | –
2 | CD73.4-IgG2-C219S-IgG1.1f (antibody, also called CD73.4-IgG2.3G1.1f-KH; CD73.4-IgG2CS-IgG1.1f) heavy: QVQLVESGGGVVQPGRSLRLSCAASGFTFSNYGMHWVRQAPGKGLEWVAVILYDGSNKYYPDSVKGRFTISRDNSKNTLYLQMNSLRAEDTAVYYCARGGSSWYPDSFDIWGQGTMVTVSSASTKGPSVFPLAPCSRSTSESTAALGCLVKDYFPEPVTVSWNSGALTSGVHTFPAVLQSSGLYSLSSVVTVPSSNFGTQTYTCNVDHKPSNTKVDKTVERKSCVECPPCPAPPVAGPSVFLFPPKPKDTLMISRTPEVTCVVVDVSHEDPEVKFNWYVDGVEVHNAKTKPREEQYNSTYRVVSVLTVLHQDWLNGKEYKCKVSNKALPSSIEKTISKAKGQPREPQVYTLPPSREEMTKNQVSLTCLVKGFYPSDIAVEWESNGQPENNYKTTPPVLDSDGSFFLYSKLTVDKSRWQQGNVFSCSVMHEALHNHYTQKSLSLSPGK light: not shown | – | – | – | 21 | 16.6 | 81 | 90.3 | 31.2 | 3600 | 1100 | 580 | 34 | 15.8 | 76.8 | 77.6 | – | – | – | – | –
3 | 11F11 (antibody, human IgG2, kappa, V domains shown, hybridoma derived anti-CD73 antibody, IgG2 constant region; also called 11F11 (IgG2)) VH: QVQLVESGGGVVQPGRSLRLSCATSGFTFSNYGMHWVRQAPGKGLEWVAVILYDGSNKYYPDSVKGRFTISRDNSKNTLYLQMNSLRAEDTAVYYCARGGSSWYPDSFDIWGQGTMVTVSS VL: DIQMTQSPSSLSASVGDRVTITCRASQGISSWLAWYQQKPEKAPKSLIYAASSLQSGVPSRFSGSGSGTDFTLTISSLQPEDFATYYCQQYNSYPLTFGGGTKVEIKR | – | – | – | – | – | – | – | – | – | – | – | – | – | – | – | 0.58 | 98 | 1.6 nM and 0.56 nM | 0.00042 s⁻¹ and 0.00016 s⁻¹ | 260000 M⁻¹ s⁻¹ and 290000 M⁻¹ s⁻¹
